Assay results taken from patent US20240018237A1 (SICHUAN KELUN BIOTECH BIOPHARMACEUTICAL, published 2024).
Numbering of substitutions follows the chain as printed. Read-outs that look alike come from different tables or passages of the source. Blank lines part the entries; values can stand above or below the binder they belong to.

Experiments:
[1] = target: T1, human ROR1 (full-length, on the cell surface) (human, UniProt Q01973 30-937); assay: flow cytometry, A549 cells
T1 construct: whole, on cells; the tumour cell lines carry their own ROR1; also called Ba/F3-ROR1 cells; Jeko-1
T1 sequence (Q01973 30-937): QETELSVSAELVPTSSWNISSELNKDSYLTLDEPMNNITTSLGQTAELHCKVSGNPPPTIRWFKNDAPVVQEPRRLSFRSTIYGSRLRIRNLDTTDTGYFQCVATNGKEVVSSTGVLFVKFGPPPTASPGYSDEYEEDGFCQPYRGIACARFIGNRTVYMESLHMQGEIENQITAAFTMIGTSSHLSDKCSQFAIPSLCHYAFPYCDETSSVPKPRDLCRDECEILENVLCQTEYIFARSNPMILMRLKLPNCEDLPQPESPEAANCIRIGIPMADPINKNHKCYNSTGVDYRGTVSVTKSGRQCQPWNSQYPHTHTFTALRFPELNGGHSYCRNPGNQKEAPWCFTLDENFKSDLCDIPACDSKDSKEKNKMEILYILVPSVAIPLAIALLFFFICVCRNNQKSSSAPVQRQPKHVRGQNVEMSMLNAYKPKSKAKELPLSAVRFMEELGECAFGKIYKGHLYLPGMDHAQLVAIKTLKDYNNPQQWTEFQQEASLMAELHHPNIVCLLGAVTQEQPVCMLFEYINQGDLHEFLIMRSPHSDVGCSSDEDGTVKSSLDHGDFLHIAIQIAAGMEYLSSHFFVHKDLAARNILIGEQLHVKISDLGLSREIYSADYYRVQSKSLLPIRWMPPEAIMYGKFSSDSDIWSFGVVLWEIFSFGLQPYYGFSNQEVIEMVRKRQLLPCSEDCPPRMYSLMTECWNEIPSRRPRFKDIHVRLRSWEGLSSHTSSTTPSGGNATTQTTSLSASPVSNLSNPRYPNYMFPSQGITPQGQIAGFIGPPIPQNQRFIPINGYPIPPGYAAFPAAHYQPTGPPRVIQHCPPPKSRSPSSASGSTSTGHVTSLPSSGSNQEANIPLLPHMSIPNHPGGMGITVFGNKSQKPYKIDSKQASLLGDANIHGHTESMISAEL
Procedure: (§1) The affinities of the purified anti-human ROR1 chimeric antibodies binding to the Ba/F3-ROR1, Jeko-1, HT-29 and A549 cells were analyzed by flow cytometry. The specific experimental steps were as follows: the Ba/F3-ROR1, Jeko-1, HT-29 and A549 cells were incubated with the purified chimeric antibodies of different concentration gradients on ice for 30 minutes, and the anti-ROR1 antibody UC961 with human IgG1 and the anti-TNP antibody were used as positive and negative controls respectively.

human ROR1 ECD protein [2] = target: T2, human ROR1 ECD protein (human, UniProt Q01973 30-406); assay: BLI (Octet), antibody on AHC sensor, ROR1 ECD in solution, 1:1 model
T2 construct: range 30-406; Expressed in Expi293 or ExpiCHO cells; also called Recombinant human ROR ECD
T2 sequence (Q01973 30-406): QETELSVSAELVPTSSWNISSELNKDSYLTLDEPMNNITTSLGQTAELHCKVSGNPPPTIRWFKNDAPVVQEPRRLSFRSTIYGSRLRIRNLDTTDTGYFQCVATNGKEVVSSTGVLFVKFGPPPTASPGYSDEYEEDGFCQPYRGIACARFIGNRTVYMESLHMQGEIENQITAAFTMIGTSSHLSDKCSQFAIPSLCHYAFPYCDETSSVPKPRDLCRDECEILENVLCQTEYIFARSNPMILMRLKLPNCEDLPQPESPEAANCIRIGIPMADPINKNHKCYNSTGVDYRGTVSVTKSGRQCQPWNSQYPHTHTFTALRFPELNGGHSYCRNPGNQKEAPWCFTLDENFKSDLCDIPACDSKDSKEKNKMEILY
Source text: Octet ForteBio is widely used in the detection of antibody-antigen dynamic affinity. This method was used to determine the dynamic affinities of the candidate chimeric antibodies 3D8-Chi, 19F6-Chi and 38F8-Chi and the positive control antibody UC961 to human ROR1.

[3] = target: T1, human ROR1 (full-length, on the cell …); assay: flow cytometry, Jeko-1 cells
Procedure: as §1

[4] = target: T1, human ROR1 (full-length, on the cell …); assay: flow cytometry, Ba/F3-ROR1 cells
Procedure: as §1

human ROR1 ECD protein [5] = target: T2, human ROR1 ECD protein; assay: BLI (Octet), antibody on AHC sensor, ROR1 ECD in solution
[6] = target: T1, human ROR1 (full-length, on the cell …); assay: flow cytometry, HT-29 cells
Procedure: as §1

[7] = target: T1, human ROR1 (full-length, on the cell …); assay: flow cytometry, HT-29 cells; remark: listed apart in the source
[8] = target: T1, human ROR1 (full-length, on the cell …); assay: flow cytometry, A549 cells; remark: listed apart in the source
[9] = target: T1, human ROR1 (full-length, on the cell …); assay: cell-based or functional assay
[10] = target: T1, human ROR1 (full-length, on the cell …); assay: flow cytometry, Ba/F3-ROR1 cells; remark: listed apart in the source
[11] = target: T1, human ROR1 (full-length, on the cell …); assay: cell-based or functional assay; remark: listed apart in the source
human ROR1 ECD protein [12] = target: T2, human ROR1 ECD protein; assay: BLI (Octet), antibody on AHC sensor, ROR1 ECD in solution, 1:1 model; remark: listed apart in the source
Procedure: The dynamic affinities of humanized molecules 19F6-Hu35V1, 3D8-HuC24 and 38F8-Hu57 and positive control antibody UC961 to human ROR1 ECD protein were determined by Octet ForteBio method.

[13] = target: T1, human ROR1 (full-length, on the cell …); assay: flow cytometry, Jeko-1 cells; remark: listed apart in the source
[14] = target: T1, human ROR1 (full-length, on the cell …); assay: flow cytometry, Ba/F3-ROR1 cells; remark: listed apart in the source
Procedure: The affinities of the anti-human ROR1 humanized antibodies to Ba/F3-ROR1, Jeko-1, HT-29 and A549 cells were detected by flow cytometry. The specific experimental steps were as follows: the BaBF3-ROR1, Jeko-1, HT-29 and A549 cells were incubated with the purified humanized antibodies of different concentration gradients on ice for 30 minutes, and the anti-ROR1 antibody UC961 with human IgG1 and the anti-TNP antibody were used as positive and negative controls, respectively.

EC50 [7]: 0.33 nM
EC50 [8]: 0.23 nM
EC50 [14]: 0.75 nM
Kd (human ROR1 ECD protein [12]): 10 nM
koff (human ROR1 ECD protein [12]): 0.00242 s⁻¹
kon (human ROR1 ECD protein [12]): 241000 M⁻¹ s⁻¹
EC50 [13]: 0.07 nM
B5: 38F8-Hu57 (antibody, human IgG1, kappa, V domains shown)
VH: EVQLVESGGGLVQPGGSLRLSCAASGFTFSNYAMSWVRQAPEKRLEWVASISSGGPTYYPDSVKGRFTVSRDNSKNTLYLQMNSLRAEDTAVYYCARGYRYDVNWYFDVWGAGTMVTVSS
VL: DIQMTQSPSSLSASVGDRVTITCQASQDISNYLTWFQQKPGKSPKTLIHRANRLVTGVPSRFSGSGSGTDYTFTISSLQPEDIAIYYCLQYDEFPYTFGGGTKVEIKR
notes: humanized, human IgG1 / kappa
EC50 of ADCC killing of Ba/F3-ROR1 cells by NK92MI-mCD16a-hFceRI cells [11]: 0.19 nM

EC50 [1]: 0.087 nM
Kd (human ROR1 ECD protein [2]): 0.456 nM
koff (human ROR1 ECD protein [2]): 0.000514 s⁻¹
kon (human ROR1 ECD protein [2]): 1.13e+06 M⁻¹ s⁻¹
EC50 [3]: 0.271 nM
EC50 [4]: 0.325 nM
fold stronger affinity than UC961 (by KD) (human ROR1 ECD protein [5]): 34.6 fold
EC50 [6]: 0.266 nM
B6: 19F6-Chi (antibody, human IgG1, kappa, V domains shown)
VH: DVQLQESGPGLVKPSQSLSLTCTVTGYSITSDYAWNWIRQFPGNKLEWMGYISYSGSIRYNPSLKSRISITRDTSKNQFFLQLNSVTTEDTATYYCARGEITYYFDYWGQGTTLTVSS
VL: DIKMTQSPASLSMAIGEKVTIRCITTTDIDDDMNWYQQKPGEPPKLLISEGNTLRPGVPSRFSSSGYGTDFVFTIENMVSEDVADYYCLQSNDLPLTFGAGTKLELKR
notes: Variable regions of 19F6.2.3 on human IgG1 / kappa constant regions; also called anti-human ROR1 chimeric antibody 19F6-Chi

The next lines start with the binder.

B1: 3D8-Chi (antibody, human IgG1, kappa, V domains shown)
VH: EVKLVESGGGLVKPGGSLKLSCAASGFTFSSYAMSWVRQTPEKRLEWVASINSGGSTYYPDSVKGRFTISRDNARNILYLQMSSLRSEDTAMYYCARVNYYGYGDYAMDYWGQGTSVTVSS
VL: DIKMTQSPSSMYASLGERVTITCKASQDINSYLSWFQQKPGKSPKTLIYRANRLVDGVPSRFSGSGSGQDYSLTISSLEYEDMGIYYCLQYDEFPYTFGGGTNLEIKR
notes: Variable regions of 3D8.2.3 on human IgG1 / kappa constant regions; also called anti-human ROR1 chimeric antibody 3D8-Chi
EC50 [1]: 0.28 nM
Kd (human ROR1 ECD protein [2]): 8.09 nM
koff (human ROR1 ECD protein [2]): 0.00381 s⁻¹
kon (human ROR1 ECD protein [2]): 471000 M⁻¹ s⁻¹
EC50 [3]: 0.619 nM
EC50 [4]: 0.62 nM
fold stronger affinity than UC961 (by KD) (human ROR1 ECD protein [5]): 2 fold
EC50 [6]: 0.463 nM

B2: 38F8-Chi (antibody, human IgG1, kappa, V domains shown)
VH: EVKLVESGGDLVKPGGSLKLSCTASGFTFSNYAMSWVRQTPEKRLEWVASISSGGPTYYPDSVKGRFTVSRDNARNILYLQMSSLRSEDTAMYYCARGYRYDVNWYFDVWGAGTSVTVSS
VL: B1 VL with S34T, Y49H, N103K
notes: Variable regions of 38F8.1.1 on human IgG1 / kappa constant regions; also called anti-human ROR1 chimeric antibody 38F8-Chi
EC50 [1]: 0.091 nM
Kd (human ROR1 ECD protein [2]): 3.17 nM
koff (human ROR1 ECD protein [2]): 0.00299 s⁻¹
kon (human ROR1 ECD protein [2]): 942000 M⁻¹ s⁻¹
EC50 [3]: 0.563 nM
EC50 [4]: 0.416 nM
fold stronger affinity than UC961 (by KD) (human ROR1 ECD protein [5]): 5 fold
EC50 [6]: 0.22 nM

B3: 19F6-Hu35V1 (antibody, human IgG1, kappa, V domains shown)
VH: QVQLQESGPGLVKPSQTLSLTCTVSGYSITSDYAWNWIRQFPGKGLEWIGYISYSGSIRYNPSLKSRVTISRDTSKNQFSLKLSSVTAADTAVYYCARGEITYYFDYWGQGTLVTVSS
VL: ETTLTQSPAFMSATPGDKVTISCKASTSIDDDMNWYQQKPGEPPKLIISEGNTLRPGIPPRFSSSGYGTDFTFTINKIKSEDAATYYCLQSNDLPLTFGQGTKLEIKR
notes: humanized, human IgG1 / kappa
EC50 [7]: 0.15 nM
EC50 [8]: 0.08 nM
internalization activity in N87 cells (pHrodo dye), fold over UC961 [9]: ~7 fold
EC50 [10]: 0.17 nM
EC50 of ADCC killing of Ba/F3-ROR1 cells by NK92MI-mCD16a-hFceRI cells [11]: 0.31 nM
Kd (human ROR1 ECD protein [12]): 1.61 nM
koff (human ROR1 ECD protein [12]): 0.000863 s⁻¹
kon (human ROR1 ECD protein [12]): 538000 M⁻¹ s⁻¹
EC50 [13]: 0.12 nM
fold stronger affinity than UC961 (by KD) (human ROR1 ECD protein [5]): 5.4 fold

B4: 3D8-HuC24 (antibody, human IgG1, kappa, V domains shown)
VH: EVQLVESGGGLVQPGGSLRLSCAASGFTFSSYAMSWVRQAPGKGLEWVASINSGGSTYYPDSVKGRFTISRDNAKNSLYLQMNSLRAEDTAVYYCARVNYYGYGDYAMDYWGQGTLVTVSS
VL: B5 VL with Y71F, I85T
notes: humanized, human IgG1 / kappa
EC50 [7]: 0.17 nM
EC50 [8]: 0.29 nM
EC50 of ADCC killing of Ba/F3-ROR1 cells by NK92MI-mCD16a-hFceRI cells [11]: 0.28 nM
EC50 [14]: 0.23 nM
Kd (human ROR1 ECD protein [12]): 26.1 nM
koff (human ROR1 ECD protein [12]): 0.0153 s⁻¹
kon (human ROR1 ECD protein [12]): 586000 M⁻¹ s⁻¹
EC50 [13]: 0.04 nM
